How the values were obtained:
Assay in all cases: cell-based or functional assay
ADAMTS4 = target: T1, ADAMTS4 (human, UniProt O75173 213-685, limits assumed)
T1 sequence (looked up): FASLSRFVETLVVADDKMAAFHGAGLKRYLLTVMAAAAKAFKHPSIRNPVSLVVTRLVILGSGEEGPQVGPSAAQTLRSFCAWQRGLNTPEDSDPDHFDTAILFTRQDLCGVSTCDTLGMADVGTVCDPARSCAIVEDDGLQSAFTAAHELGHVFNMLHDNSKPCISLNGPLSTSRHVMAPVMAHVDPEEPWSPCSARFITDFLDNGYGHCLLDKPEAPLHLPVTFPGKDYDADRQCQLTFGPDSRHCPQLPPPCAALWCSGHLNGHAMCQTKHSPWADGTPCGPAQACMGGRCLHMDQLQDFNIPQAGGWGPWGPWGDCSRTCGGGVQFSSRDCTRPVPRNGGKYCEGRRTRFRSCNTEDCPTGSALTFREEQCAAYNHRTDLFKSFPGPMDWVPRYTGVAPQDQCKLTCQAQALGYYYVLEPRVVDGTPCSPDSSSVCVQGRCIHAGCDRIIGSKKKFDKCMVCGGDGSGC

ADAMTS5 = target: T2, ADAMTS5 (human, UniProt Q9UNA0 262-622, limits assumed)
T2 sequence (looked up): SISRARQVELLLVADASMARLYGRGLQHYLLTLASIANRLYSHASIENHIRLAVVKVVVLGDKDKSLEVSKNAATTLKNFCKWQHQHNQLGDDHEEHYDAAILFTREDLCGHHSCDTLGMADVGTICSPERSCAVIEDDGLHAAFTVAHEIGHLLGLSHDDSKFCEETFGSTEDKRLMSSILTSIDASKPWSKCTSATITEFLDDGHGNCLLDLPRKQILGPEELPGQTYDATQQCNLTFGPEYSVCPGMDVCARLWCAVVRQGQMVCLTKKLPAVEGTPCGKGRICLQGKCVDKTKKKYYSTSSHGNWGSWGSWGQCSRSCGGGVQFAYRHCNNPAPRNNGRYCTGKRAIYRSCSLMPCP

MMP1 = target: T3, MMP1 (human, UniProt P03956 100-469, limits assumed)
T3 sequence (looked up): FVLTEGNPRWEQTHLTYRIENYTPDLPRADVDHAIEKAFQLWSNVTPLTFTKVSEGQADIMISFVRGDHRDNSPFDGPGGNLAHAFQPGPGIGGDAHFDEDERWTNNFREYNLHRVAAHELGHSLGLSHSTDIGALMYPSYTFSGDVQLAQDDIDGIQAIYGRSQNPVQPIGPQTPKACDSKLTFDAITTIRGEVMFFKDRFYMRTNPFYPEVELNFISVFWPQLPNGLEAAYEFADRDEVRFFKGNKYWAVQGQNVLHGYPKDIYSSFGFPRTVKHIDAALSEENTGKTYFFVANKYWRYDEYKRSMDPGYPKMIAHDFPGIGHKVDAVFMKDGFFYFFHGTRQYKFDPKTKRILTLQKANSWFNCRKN

MMP8 = MMP8 (human, UniProt P22894 101-467, limits assumed)
MMP13 = MMP13 (human, UniProt P45452 104-471, limits assumed)
MMP2 = target: T4, MMP2 (human, UniProt P08253 110-660, limits assumed)
T4 sequence (looked up): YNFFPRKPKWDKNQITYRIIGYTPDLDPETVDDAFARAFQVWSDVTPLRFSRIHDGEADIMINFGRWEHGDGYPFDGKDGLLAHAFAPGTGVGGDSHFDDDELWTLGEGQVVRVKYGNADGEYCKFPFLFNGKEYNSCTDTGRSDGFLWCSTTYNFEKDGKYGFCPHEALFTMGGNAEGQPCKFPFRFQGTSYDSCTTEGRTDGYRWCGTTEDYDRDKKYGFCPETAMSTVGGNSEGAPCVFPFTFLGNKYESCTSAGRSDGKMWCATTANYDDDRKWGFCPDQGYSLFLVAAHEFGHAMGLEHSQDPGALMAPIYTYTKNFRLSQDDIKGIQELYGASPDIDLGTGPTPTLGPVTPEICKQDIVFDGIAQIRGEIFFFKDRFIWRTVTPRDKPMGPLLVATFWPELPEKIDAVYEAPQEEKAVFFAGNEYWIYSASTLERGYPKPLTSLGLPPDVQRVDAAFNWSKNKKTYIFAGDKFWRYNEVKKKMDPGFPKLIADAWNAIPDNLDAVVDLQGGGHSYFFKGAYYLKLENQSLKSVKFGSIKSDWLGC

MMP9 = MMP9 (human, UniProt P14780 107-707, limits assumed)
MMP3 = MMP3 (human, UniProt P08254 100-477, limits assumed)
Elastase = target: Elastase
Cathepsin G = target: T5, Cathepsin G (UniProt P08311 21-244)
T5 sequence (looked up): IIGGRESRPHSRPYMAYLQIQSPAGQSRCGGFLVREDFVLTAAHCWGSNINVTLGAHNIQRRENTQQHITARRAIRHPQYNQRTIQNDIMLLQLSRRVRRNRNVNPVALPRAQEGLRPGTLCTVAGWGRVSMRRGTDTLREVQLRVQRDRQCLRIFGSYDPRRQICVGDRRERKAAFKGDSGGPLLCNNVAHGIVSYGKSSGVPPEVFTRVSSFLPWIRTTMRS

MMP7 = target: T6, MMP7 (UniProt P09237 95-267, limits assumed)
T6 sequence (looked up): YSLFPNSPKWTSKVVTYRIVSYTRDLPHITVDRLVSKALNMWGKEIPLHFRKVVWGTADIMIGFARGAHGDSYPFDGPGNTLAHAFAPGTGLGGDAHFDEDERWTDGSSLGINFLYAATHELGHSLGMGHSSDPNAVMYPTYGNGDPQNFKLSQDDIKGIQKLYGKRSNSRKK

MMP9, sequence (P14780 107-707 limits assumed): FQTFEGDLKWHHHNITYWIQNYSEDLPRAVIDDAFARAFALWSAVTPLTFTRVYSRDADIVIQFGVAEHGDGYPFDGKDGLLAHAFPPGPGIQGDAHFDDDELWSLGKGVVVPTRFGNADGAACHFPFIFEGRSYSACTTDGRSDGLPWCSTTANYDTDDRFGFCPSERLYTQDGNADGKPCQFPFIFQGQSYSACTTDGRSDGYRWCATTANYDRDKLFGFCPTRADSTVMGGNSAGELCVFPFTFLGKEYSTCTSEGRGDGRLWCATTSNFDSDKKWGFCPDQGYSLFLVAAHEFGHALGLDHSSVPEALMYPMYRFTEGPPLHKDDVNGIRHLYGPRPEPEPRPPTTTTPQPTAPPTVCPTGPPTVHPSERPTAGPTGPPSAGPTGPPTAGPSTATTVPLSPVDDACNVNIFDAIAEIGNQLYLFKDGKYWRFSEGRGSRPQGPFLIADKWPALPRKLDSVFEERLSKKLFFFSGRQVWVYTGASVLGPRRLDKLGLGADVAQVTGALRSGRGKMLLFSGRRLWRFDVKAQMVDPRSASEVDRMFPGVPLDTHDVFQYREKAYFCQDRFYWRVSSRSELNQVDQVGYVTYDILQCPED
MMP3, sequence (P08254 100-477 limits assumed): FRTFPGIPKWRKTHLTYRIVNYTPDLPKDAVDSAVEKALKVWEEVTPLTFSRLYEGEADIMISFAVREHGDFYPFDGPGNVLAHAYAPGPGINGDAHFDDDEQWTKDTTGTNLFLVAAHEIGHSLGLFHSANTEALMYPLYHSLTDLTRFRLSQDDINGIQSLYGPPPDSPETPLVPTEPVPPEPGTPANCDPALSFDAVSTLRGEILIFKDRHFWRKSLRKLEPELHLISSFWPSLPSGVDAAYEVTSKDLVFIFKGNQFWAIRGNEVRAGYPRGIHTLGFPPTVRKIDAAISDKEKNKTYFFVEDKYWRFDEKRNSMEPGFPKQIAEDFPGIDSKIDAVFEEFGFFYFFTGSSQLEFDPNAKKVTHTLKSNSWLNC
MMP8, sequence (P22894 101-467 limits assumed): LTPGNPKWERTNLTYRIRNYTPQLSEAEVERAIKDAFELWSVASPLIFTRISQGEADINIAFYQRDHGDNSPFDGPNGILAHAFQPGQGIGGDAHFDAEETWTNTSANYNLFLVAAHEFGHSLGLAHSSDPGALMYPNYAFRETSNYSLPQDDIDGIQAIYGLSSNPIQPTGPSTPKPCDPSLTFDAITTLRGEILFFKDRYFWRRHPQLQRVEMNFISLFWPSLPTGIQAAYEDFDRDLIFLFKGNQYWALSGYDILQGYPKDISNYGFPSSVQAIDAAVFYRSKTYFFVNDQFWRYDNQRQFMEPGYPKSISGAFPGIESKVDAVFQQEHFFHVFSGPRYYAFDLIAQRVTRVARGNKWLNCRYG

B1: Variant A2M, bait region SEQ ID NO 25 (other)
chain: SVSGKPQYMVLVPSLLHTETTEKGCVLLSYLNETVTVSASLESVRGNRSLFTDLEAENDVLHCVAFAVPKSSSNEEVMFLTVQVKGPTQEFKKRTTVMVKNEDSLVFVQTDKSIYKPGQTVKFRVVSMDENFHPLNELIPLVYIQDPKGNRIAQWQSFQLEGGLKQFSFPLSSEPFQGSYKVVVQKKSGGRTEHPFTVEEFVLPKFEVQVTVPKIITILEEEMNVSVCGLYTYGKPVPGHVTVSICRKYSDASDCHGEDSQAFCEKFSGQLNSHGCFYQQVKTKVFQLKRKEYEMKLHTEAQIQEEGTVVELTGRQSSEITRTITKLSFVKVDSHFRQGIPFFGQVRLVDGKGVPIPNKVIFIRGNEANYYSNATTDEHGLVQFSINTTNVMGTSLTVRVNYKDRSPCYGYQWVSEEHEEAHHTAYLVFSPSKSFVHLEPMSHELPCGHTQTVQAHYILNGGTLLGLKKLSFYYLIMAKGGIVRTGTHGLLVKQEDMKGHFSISIPVKSDIAPVARLLIYAVLPTGDVIGDSAKYDVENCLANKVDLSFSPSQSLPASHAHLRVTAAPQSVCALRAVDQSVLLMKPDAELSASSVYNLLPEKDLTGFPGPLNDQDDEDCINRHNVYINGITYTPVSSTNEKDMYSFLEDMGLKAFTNSKIRKPKMCPQLEHGPEGEGEGEGIPENFYGVSEDLYTASELEGRGSVEEPHTKLRKYFPETWIWDLVVVNSAGVAEVGVTVPDTITEWKAGAFCLSEDAGLGISSTASLRAFQPFFVELTMPYSVIRGEAFTLKATVLNYLPKCIRVSVQLEASPAFLAVPVEKEQAPHCICANGRQTVSWAVTPKSLGNVNFTVSAEALESQELCGTEVPSVPEHGRKDTVIKPLLVEPEGLEKETTFNSLLCPSGGEVSEELSLKLPPNVVEESARASVSVLGDILGSAMQNTQNLLQMPYGCGEQNMVLFAPNIYVLDYLNETQQLTPEIKSKAIGYLNTGYQRQLNYKHYDGSYSTFGERYGRNQGNTWLTAFVLKTFAQARAYIFIDEAHITQALIWLSQRQKDNGCFRSSGSLLNNAIKGGVEDEVTLSAYITIALLEIPLTVTHPVVRNALFCLESAWKTAQEGDHGSHVYTKALLAYAFALAGNQDKRKEVLKSLNEEAVKKDNSVHWERPQKPKAPVGHFYEPQAPSAEVEMTSYVLLAYLTAQPAPTSEDLTSATNIVKWITKQQNAQGGFSSTQDTVVALHALSKYGAATFTRTGKAAQVTIQSSGTFSSKFQVDNNNRLLLQQVSLPELPGEYSMKVTGEGCVYLQTSLKYNILPEKEEFPFALGVQTLPQTCDEPKAHTSFQISLSVSYTGSRSASNMAIVDVKMVSGFIPLKPTVKMLERSNHVSRTEVSSNHVLIYLDKVSNQTLSLFFTVLQDVPVRDLKPAIVKVYDYYETDEFAIAEYNAPCSKDLGNADYKDDDDKGASHHHHHH
With B1 the “Protease Inhibition (% of WT)” value (ADAMTS4) was 144 % of WT, the “Protease Inhibition (% of WT)” value (ADAMTS5) was 376 % of WT and the “Protease Inhibition (% of WT)” value (MMP1) was 101 % of WT. The “Protease Inhibition (% of WT)” value (MMP8) was 36 % of WT, the “Protease Inhibition (% of WT)” value (MMP13) was 138 % of WT and the “Protease Inhibition (% of WT)” value (MMP2) was 43 % of WT. The “Protease Inhibition (% of WT)” value (MMP9) was 25 % of WT, the “Protease Inhibition (% of WT)” value (MMP3) was 86 % of WT and the “Protease Inhibition (% of WT)” value (Elastase) was 100 % of WT. For the same binder, the “Protease Inhibition (% of WT)” value (Cathepsin G) was 117 % of WT and the “Protease Inhibition (% of WT)” value (MMP7) was 140 % of WT.

B2: Variant A2M, bait region SEQ ID NO 28 (other)
chain: SVSGKPQYMVLVPSLLHTETTEKGCVLLSYLNETVTVSASLESVRGNRSLFTDLEAENDVLHCVAFAVPKSSSNEEVMFLTVQVKGPTQEFKKRTTVMVKNEDSLVFVQTDKSIYKPGQTVKFRVVSMDENFHPLNELIPLVYIQDPKGNRIAQWQSFQLEGGLKQFSFPLSSEPFQGSYKVVVQKKSGGRTEHPFTVEEFVLPKFEVQVTVPKIITILEEEMNVSVCGLYTYGKPVPGHVTVSICRKYSDASDCHGEDSQAFCEKFSGQLNSHGCFYQQVKTKVFQLKRKEYEMKLHTEAQIQEEGTVVELTGRQSSEITRTITKLSFVKVDSHFRQGIPFFGQVRLVDGKGVPIPNKVIFIRGNEANYYSNATTDEHGLVQFSINTTNVMGTSLTVRVNYKDRSPCYGYQWVSEEHEEAHHTAYLVFSPSKSFVHLEPMSHELPCGHTQTVQAHYILNGGTLLGLKKLSFYYLIMAKGGIVRTGTHGLLVKQEDMKGHFSISIPVKSDIAPVARLLIYAVLPTGDVIGDSAKYDVENCLANKVDLSFSPSQSLPASHAHLRVTAAPQSVCALRAVDQSVLLMKPDAELSASSVYNLLPEKDLTGFPGPLNDQDDEDCINRHNVYINGITYTPVSSTNEKDMYSFLEDMGLKAFTNSKIRKPKMCPQLEQYEMHGPEGEGEGEFRAAPFLTAIPENFFGVSEDLVVQISELEGRGSPHTKLRKYFPETWIWDLVVVNSAGVAEVGVTVPDTITEWKAGAFCLSEDAGLGISSTASLRAFQPFFVELTMPYSVIRGEAFTLKATVLNYLPKCIRVSVQLEASPAFLAVPVEKEQAPHCICANGRQTVSWAVTPKSLGNVNFTVSAEALESQELCGTEVPSVPEHGRKDTVIKPLLVEPEGLEKETTFNSLLCPSGGEVSEELSLKLPPNVVEESARASVSVLGDILGSAMQNTQNLLQMPYGCGEQNMVLFAPNIYVLDYLNETQQLTPEIKSKAIGYLNTGYQRQLNYKHYDGSYSTFGERYGRNQGNTWLTAFVLKTFAQARAYIFIDEAHITQALIWLSQRQKDNGCFRSSGSLLNNAIKGGVEDEVTLSAYITIALLEIPLTVTHPVVRNALFCLESAWKTAQEGDHGSHVYTKALLAYAFALAGNQDKRKEVLKSLNEEAVKKDNSVHWERPQKPKAPVGHFYEPQAPSAEVEMTSYVLLAYLTAQPAPTSEDLTSATNIVKWITKQQNAQGGFSSTQDTVVALHALSKYGAATFTRTGKAAQVTIQSSGTFSSKFQVDNNNRLLLQQVSLPELPGEYSMKVTGEGCVYLQTSLKYNILPEKEEFPFALGVQTLPQTCDEPKAHTSFQISLSVSYTGSRSASNMAIVDVKMVSGFIPLKPTVKMLERSNHVSRTEVSSNHVLIYLDKVSNQTLSLFFTVLQDVPVRDLKPAIVKVYDYYETDEFAIAEYNAPCSKDLGNADYKDDDDKGASHHHHHH
B2 was tested, and the “Protease Inhibition (% of WT)” value (ADAMTS4) was 180 % of WT, the “Protease Inhibition (% of WT)” value (ADAMTS5) was 398 % of WT and the “Protease Inhibition (% of WT)” value (MMP1) was 67 % of WT. The “Protease Inhibition (% of WT)” value (MMP8) was 38 % of WT, the “Protease Inhibition (% of WT)” value (MMP13) was 90 % of WT and the “Protease Inhibition (% of WT)” value (MMP2) was 36 % of WT. For the same binder, the “Protease Inhibition (% of WT)” value (MMP9) was 14 % of WT, the “Protease Inhibition (% of WT)” value (MMP3) was 129 % of WT and the “Protease Inhibition (% of WT)” value (Elastase) was 75 % of WT. The “Protease Inhibition (% of WT)” value (Cathepsin G) was 69 % of WT and the “Protease Inhibition (% of WT)” value (MMP7) was 94 % of WT.
